Source: article PMC10591846 (Cell reports, 2023)
Where no end group is shown, it is not given here. The star is where a group is joined. Biotin = O=C1N[C@H]2[C@H](CS[C@H]2CCCCC(=O)*)N1

T1: GST-Pirh2_(15-195) (human, UniProt Q96PM5 15-195)
T1 sequence: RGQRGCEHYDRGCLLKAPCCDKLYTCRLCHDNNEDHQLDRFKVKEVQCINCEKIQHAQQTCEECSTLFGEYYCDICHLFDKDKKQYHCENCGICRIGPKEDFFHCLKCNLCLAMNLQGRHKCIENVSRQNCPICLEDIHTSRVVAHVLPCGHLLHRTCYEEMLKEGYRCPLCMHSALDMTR

T2: GST-Pirh2_(1–195) (human, UniProt Q96PM5 1-195)
T2 sequence: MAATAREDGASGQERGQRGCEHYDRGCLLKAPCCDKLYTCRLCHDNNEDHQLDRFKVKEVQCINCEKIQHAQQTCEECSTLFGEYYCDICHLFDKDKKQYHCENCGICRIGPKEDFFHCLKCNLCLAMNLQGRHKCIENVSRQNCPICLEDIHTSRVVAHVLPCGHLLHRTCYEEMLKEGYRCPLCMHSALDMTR


How the values were obtained:
Experiment in all cases: AlphaScreen or HTRF
[1] = biological target: GST-KLHDC10 (full length) with Elongin B/C (human | , UniProt Q6PID8 1-442; Q15370 1-104; Q15369 1-112)
Chain of GST-KLHDC10 (full length) with Elongin B/C (Q6PID8 whole entry, chain 1 of 2): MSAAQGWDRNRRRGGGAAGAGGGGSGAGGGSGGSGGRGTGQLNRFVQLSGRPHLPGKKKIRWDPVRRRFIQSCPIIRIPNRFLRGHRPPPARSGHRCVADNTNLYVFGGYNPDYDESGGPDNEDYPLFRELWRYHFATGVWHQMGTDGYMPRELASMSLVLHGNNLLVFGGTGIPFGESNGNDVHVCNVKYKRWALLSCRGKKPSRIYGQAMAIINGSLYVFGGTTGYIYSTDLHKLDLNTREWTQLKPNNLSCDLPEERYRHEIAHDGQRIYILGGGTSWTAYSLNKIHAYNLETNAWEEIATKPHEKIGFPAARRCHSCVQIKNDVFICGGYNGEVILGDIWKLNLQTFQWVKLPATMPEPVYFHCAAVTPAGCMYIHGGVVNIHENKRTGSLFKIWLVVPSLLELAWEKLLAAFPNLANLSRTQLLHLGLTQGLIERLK
Chain of GST-KLHDC10 (full length) with Elongin B/C (Q15369 whole entry, chain 3 of 2): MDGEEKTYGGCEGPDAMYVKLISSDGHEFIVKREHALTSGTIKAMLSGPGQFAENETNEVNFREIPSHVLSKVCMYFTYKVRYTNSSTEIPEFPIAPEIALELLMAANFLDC

GST-Pirh2_(15-195) = biological target: T1, GST-Pirh2_(15-195)
GST-Pirh2_(1–195) = biological target: T2, GST-Pirh2_(1–195)

Binder	IC50 (GST-Pirh2_(15-195))	binding result (GST-Pirh2_(15-195))	other results
Biotin-MDELYKAAAAAA [Biotin-MDELYKAAAAAA]			binding result [1]: binds
MDELYKAAAAAD	~26000 nM		
MDELYKAAAAAG	~2000 nM		
MDELYKAAALAA			fold reduction of binding against the Ala6 peptide (GST-Pirh2_(15-195)): 3 fold
MDELYKAAGAAA			fold reduction of binding against the Ala6 peptide (GST-Pirh2_(15-195)): 100 fold
MDELYKGAAAAA	~60 nM		
MDELYKLAAAAA	~60 nM		
MDELYKAAAAAA [MDELYKAAAAAA (Ala-tail peptide, non-biotinylated)]	50 to 120 nM		IC50 [1]: 5 to 10 nM; IC50 (GST-Pirh2_(1–195)): 90 to 120 nM
MDELYKAAAAAA-NH2 [MDELYKAAAAAA-NH2]			fold reduction of affinity against the Ala-tail peptide with free carboxyl (GST-Pirh2_(15-195)): ~2000 fold
MDELYKAAAAA	~50 nM		
MDELYKAAAA	~2000 nM		
DELYKAAAAA		binds	
ELYKAAAAA		binds	
LYKAAAAA		binds	
YKAAAAA		binds	
KAAAAA		binds	
MDELAAAAA		binds	
